Assay results from patent US12344663 (CDR LIFE, dated 2025).
Numbering of substitutions follows the chain as printed. One block for each binder: values may come before it.

Columns and labels:
human complement C3 [1] = molecular target: T1, human complement C3 (human, UniProt P01024 23-1663); assay: SPR
T1 construct: also called human C3; native human C3

human C3b [2] = molecular target: T2, human C3b (human, UniProt P01024 23-667; P01024 749-1663, limits assumed); assay: SPR
T2 construct: domain: C3b; also called C3 cleavage fragments C3b

human complement C3 [3] = molecular target: T1, human complement C3; assay: cell-based or functional assay
human complement C3 [4] = molecular target: T1, human complement C3; assay: method not given; reference Clone IV
human C3b [5] = molecular target: T2, human C3b; assay: method not given; reference Clone IV
human complement C3 [6] = molecular target: T1, human complement C3; assay: affinity of the purified scFv, method not given
human complement C3 [7] = molecular target: T1, human complement C3; assay: cell-based or functional assay; remark: listed apart in the source
human C3b [8] = molecular target: T2, human C3b; assay: SPR; reference: the same molecule on intact human C3
Method: (§1) The kinetic parameters of the candidates are determined using a surface plasmon resonance (SPR) and Biacore T100 device. C3 and different variants thereof (Table 19) are immobilized as a ligand on a HC30M SPR sensor chip (XanTec bionanalytics, Germany) using EDC/[…] linking chemistry. Five increasing concentrations of each molecule (analyte) are consecutively injected using the single cycle kinetics (SCK) mode to determine the kinetic parameters. Regeneration between the candidates is done with 10 mM glycine*HCl, 2 M NaCl, pH 3.5. The data is fitted to a 1:1 Langmuir binding model and the kinetic parameters of on-rate (ka), off-rate (kd), and affinity […] were determined.

human complement C3 [9] = molecular target: T1, human complement C3; assay: SPR (Biacore T100), target immobilized, single cycle kinetics, 1:1 Langmuir fit
Method: as §1

human C3b [10] = molecular target: T2, human C3b; assay: as above
Method: as §1

human complement C3 [11] = molecular target: T1, human complement C3; assay: as above; remark: listed apart in the source
Method: as §1

human C3b [12] = molecular target: T2, human C3b; assay: as above; remark: listed apart in the source
Method: as §1

cynomolgus C3 = molecular target: T3, cynomolgus C3 (cynomolgus (Macaca fascicularis)); assay: as above
T3 construct: also called cyno C3
Method: as §1

[13] = molecular target: T4, recombinant wild-type human C3 (human, UniProt P01024 23-1663, limits assumed); assay: as above
T4 construct: Expressed in CHO cells with an N-terminal 6×His tag; also called recombinant C3; wildtype C3
Method: as §1

human C3 P314L = molecular target: T5, human C3 P314L (human, UniProt P01024 23-1663, limits assumed); assay: as above
T5 construct: Expressed in CHO cells with an N-terminal 6×His tag; also called C3 SNP1 P314L; C3 SNP P314L
Method: as §1

human C3 R102G = molecular target: T6, human C3 R102G (human, UniProt P01024 23-1663, limits assumed); assay: as above
T6 construct: Expressed in CHO cells with an N-terminal 6×His tag; also called C3 SNP2 R102G; C3 SNP R102G
Method: as §1

human complement C3 [14] = molecular target: T1, human complement C3; assay: method not given
human C3b [15] = molecular target: T2, human C3b; assay: method not given

T6 sequence (P01024 other isoform, or with tags, fused parts or gaps R102G R102G limits assumed): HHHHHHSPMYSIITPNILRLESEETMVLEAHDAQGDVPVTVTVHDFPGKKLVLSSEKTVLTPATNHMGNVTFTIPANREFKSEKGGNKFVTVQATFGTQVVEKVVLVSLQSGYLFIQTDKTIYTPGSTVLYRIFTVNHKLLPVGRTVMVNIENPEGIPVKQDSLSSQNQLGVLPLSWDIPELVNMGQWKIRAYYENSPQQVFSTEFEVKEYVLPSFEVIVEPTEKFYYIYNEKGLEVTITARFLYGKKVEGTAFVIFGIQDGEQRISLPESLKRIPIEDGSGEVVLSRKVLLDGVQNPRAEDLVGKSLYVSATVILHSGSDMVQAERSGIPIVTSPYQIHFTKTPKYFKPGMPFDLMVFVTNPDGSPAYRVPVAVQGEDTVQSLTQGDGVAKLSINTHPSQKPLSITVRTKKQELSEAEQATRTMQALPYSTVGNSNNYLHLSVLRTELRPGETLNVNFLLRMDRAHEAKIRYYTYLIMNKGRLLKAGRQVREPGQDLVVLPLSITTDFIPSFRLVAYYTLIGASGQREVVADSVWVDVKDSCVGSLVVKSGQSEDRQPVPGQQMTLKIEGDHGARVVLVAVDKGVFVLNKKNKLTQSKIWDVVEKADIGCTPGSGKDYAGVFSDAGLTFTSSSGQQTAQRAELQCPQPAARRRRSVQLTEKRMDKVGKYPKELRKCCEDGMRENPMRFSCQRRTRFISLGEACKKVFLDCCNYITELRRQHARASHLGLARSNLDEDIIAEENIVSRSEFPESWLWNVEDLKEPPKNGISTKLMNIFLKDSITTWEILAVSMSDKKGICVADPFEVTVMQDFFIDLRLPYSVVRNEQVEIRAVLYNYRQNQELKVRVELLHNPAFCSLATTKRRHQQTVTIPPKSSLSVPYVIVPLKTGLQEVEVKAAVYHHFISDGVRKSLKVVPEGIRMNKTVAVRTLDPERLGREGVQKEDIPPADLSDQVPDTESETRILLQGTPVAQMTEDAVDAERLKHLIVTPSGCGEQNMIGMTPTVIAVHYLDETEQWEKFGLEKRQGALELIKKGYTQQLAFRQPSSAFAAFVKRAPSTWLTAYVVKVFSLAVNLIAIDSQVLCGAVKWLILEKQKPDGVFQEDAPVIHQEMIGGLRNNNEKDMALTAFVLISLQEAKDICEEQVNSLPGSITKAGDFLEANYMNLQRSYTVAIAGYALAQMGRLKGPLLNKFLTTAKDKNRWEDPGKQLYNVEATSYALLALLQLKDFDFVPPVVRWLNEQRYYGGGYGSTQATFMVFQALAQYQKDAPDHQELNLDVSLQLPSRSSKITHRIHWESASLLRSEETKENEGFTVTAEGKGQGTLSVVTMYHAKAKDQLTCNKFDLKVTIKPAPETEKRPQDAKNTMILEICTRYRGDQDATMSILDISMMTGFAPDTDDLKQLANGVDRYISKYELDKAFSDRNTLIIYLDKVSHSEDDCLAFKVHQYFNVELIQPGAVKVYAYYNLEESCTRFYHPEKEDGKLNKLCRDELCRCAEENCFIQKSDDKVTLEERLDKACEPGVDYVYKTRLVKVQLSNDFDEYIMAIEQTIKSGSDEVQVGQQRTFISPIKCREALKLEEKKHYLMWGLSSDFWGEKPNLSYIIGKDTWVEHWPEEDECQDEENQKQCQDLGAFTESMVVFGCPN
T2 sequence (P01024 23-667 limits assumed, chain 1 of 2): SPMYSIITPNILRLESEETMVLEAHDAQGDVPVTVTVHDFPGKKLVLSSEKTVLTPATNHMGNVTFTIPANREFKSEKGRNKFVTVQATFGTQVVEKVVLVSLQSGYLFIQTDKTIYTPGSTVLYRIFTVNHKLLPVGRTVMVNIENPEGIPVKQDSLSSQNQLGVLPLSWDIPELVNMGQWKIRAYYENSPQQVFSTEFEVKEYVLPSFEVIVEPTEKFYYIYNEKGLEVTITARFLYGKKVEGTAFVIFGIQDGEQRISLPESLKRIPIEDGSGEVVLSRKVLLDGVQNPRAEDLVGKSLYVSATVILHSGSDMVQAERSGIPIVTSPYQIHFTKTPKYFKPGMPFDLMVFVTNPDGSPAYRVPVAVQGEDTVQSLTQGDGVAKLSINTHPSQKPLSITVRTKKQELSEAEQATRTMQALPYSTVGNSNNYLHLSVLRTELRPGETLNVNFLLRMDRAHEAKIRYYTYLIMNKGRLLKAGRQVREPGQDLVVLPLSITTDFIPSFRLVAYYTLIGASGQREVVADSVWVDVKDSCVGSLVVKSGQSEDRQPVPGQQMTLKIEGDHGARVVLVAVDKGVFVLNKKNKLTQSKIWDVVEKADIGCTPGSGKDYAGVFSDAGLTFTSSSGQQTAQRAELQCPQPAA
T2 sequence (P01024 749-1663 limits assumed, chain 2 of 2): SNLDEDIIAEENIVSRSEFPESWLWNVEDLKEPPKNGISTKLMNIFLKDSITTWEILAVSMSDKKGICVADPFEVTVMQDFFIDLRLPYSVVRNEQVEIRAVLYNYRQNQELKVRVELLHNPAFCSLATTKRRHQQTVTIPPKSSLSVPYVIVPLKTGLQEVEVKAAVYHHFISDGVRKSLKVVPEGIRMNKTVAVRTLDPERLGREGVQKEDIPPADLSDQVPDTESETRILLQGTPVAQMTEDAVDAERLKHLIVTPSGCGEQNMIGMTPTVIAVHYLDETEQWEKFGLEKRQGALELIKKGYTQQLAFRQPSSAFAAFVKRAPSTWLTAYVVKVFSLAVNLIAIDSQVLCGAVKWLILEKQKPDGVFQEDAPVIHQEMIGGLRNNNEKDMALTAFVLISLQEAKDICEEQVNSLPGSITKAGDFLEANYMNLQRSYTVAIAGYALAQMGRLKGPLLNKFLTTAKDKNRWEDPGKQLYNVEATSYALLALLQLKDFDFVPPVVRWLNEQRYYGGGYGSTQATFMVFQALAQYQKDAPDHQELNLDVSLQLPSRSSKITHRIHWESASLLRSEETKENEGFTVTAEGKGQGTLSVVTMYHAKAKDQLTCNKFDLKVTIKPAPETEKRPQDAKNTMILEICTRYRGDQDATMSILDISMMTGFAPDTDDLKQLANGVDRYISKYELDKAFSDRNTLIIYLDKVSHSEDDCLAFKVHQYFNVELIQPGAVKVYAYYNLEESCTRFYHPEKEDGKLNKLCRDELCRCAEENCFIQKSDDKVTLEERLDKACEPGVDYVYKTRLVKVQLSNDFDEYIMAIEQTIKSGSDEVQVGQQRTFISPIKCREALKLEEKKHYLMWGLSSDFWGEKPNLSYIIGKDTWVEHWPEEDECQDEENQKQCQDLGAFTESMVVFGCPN
T5 sequence (P01024 other isoform, or with tags, fused parts or gaps P314L P314L limits assumed): as the sequence (P01024 other isoform, or with tags, fused parts or gaps R102G R102G limits assumed) above, with G86R, P298L counted along it
T4 sequence (P01024 other isoform, or with tags, fused parts or gaps limits assumed): as the sequence (P01024 other isoform, or with tags, fused parts or gaps R102G R102G limits assumed) above, with G86R counted along it
T1 sequence (P01024 23-1663 limits assumed): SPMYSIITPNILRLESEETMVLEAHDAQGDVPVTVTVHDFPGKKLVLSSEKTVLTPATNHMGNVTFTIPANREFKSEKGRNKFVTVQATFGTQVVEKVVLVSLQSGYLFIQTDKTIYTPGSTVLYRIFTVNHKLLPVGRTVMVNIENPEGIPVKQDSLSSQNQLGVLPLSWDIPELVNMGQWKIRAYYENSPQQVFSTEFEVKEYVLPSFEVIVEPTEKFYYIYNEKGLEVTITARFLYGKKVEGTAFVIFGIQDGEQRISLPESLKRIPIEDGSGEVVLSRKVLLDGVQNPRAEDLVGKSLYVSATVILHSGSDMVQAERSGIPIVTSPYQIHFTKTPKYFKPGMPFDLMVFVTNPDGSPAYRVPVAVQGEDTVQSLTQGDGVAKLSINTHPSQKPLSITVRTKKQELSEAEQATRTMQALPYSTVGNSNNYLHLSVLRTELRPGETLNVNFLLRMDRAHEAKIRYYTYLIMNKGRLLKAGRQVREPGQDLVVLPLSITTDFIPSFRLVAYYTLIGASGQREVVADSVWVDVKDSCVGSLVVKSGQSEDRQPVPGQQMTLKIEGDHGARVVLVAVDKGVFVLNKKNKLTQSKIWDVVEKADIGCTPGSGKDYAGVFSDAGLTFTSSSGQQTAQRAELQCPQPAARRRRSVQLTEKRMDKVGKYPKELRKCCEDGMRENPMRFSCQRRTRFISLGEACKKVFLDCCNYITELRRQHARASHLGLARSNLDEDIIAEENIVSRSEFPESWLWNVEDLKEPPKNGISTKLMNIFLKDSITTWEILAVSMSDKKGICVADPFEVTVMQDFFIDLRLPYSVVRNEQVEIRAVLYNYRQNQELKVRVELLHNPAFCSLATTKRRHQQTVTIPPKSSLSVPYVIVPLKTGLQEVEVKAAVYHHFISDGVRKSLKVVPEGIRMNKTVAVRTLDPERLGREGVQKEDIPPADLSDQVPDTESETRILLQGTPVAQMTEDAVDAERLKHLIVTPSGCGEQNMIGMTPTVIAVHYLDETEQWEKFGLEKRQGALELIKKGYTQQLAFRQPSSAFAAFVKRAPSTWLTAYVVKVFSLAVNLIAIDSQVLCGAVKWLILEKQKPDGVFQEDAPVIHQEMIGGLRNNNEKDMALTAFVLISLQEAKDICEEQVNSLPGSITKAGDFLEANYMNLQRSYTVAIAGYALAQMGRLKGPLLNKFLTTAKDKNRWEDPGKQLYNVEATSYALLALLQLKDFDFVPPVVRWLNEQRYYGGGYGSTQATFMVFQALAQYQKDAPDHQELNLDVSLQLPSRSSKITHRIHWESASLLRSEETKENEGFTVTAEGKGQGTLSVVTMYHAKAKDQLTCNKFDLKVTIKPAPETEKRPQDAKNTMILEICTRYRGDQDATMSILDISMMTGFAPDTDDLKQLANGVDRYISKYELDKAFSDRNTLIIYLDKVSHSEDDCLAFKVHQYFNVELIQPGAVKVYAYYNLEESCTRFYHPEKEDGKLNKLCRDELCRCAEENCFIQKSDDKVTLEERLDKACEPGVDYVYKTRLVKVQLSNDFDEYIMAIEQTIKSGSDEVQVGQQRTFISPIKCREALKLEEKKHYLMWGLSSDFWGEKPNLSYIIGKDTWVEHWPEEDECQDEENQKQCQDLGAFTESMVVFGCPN

Kd (human complement C3 [1]): 4.7 nM
Kd (human C3b [2]): 4.8 nM
IC50, complement inhibition in the alternative pathway (human complement C3 [3]): 210 nM
IC50, complement inhibition in the classical pathway (human complement C3 [3]): 98 nM
B2: Clone XII (scFv)
scFv: MQLVLTQSPSASASLGASVKLTCTLSSAHKTYTIDWYQQQPEKCPRYLMQLKSEGSYTKGTGVPDRFSGSSSGAERYLTISSLQSEDEADYYCGTDYGGGYVFGGGTKLTVLGGGGGSGGGGSGGGGSGGGGSQVQVVESGGGSVQPGRSLRLSCAVSGFSLYNYAMNWVRQAPGKGLEWIGIINVGGGTNYASWAKGRFTISTDNSKNTVYLQMNSLRAEDTASYYCARAVGYHHARLDPWGCGTSVTVSS

fold increase in the binding affinity compared to Clone IV (human complement C3 [4]): ~10 fold
fold increase in the binding affinity compared to Clone IV (human C3b [5]): ~10 fold
Kd (human complement C3 [6]): 0.184 nM
B3: Clone VIII (scFv)
scFv: B2 scFv with C44G, E88S, D90V, D96E, Y97G, G98V, G105C, G177C, A237S, C244Q

Kd (human complement C3 [1]): 0.129 nM
Kd (human C3b [2]): 0.116 nM
IC50, complement inhibition in the alternative pathway (human complement C3 [3]): 250 nM
IC50, complement inhibition in the classical pathway (human complement C3 [3]): 50 nM
B6: Clone XIV (scFv)
scFv: B2 scFv with D96E, Y97G, G98V, A237S
notes: also called Cone XIV

IC50 (nM), Alternative Pathway, MAC deposition (WEISLAB, human serum) (human complement C3 [7]): 548 nM
IC50 (nM), Classical Pathway, MAC deposition (WEISLAB, human serum) (human complement C3 [7]): 56 nM
IC50 (nM), Lectin Pathway, MAC deposition (WEISLAB, human serum) (human complement C3 [7]): 58 nM
B7: Comparative Compound A3 (antibody, human IgG1, kappa, V domains shown)
VH: QVQLVQSGAEVKKPGASVKVSCKASGYTFTDFYMDWVRQAPGQRLEWMGYIYPHNGGTTYNQQFTGRVTITVDKSASTAYMELSSLRSEDTAVYYCARRGGFDFDYWGQGTLVTVSS
VL: DIQMTQSPSSLSASVGDRVTITCKASENVDTYVSWYQQKPGKAPKLLIYGASNRYTGVPSRFSGSGSGTDFTFTISSLQPEDIATYHCGQSHSYPLTFGQGTKLEIKR
IC50 (nM), Alternative Pathway, Hemolysis (rabbit erythrocytes, human serum) (human complement C3 [7]): 207 nM
IC50 (nM), Classical Pathway, Hemolysis (antibody-sensitized sheep erythrocytes, human serum) (human complement C3 [7]): 56 nM

fold lower affinity to C3b than to intact human C3 (human C3b [8]): > 100 fold
Kd (human complement C3 [9]): 0.34 nM
B8: Compound A3 Fab (Fab, V domains shown)
VH: B7 VH
VL: B7 VL
notes: also called NGM621 surrogate in a Fab format

Further lines, the binder ahead of its results:

B1: Clone XIII (scFv)
scFv: B2 scFv with D96E, Y97G, G98V
Kd (human complement C3 [1]): 0.116 nM
Kd (human C3b [2]): 0.11 nM
IC50, complement inhibition in the alternative pathway (human complement C3 [3]): 260 nM
IC50, complement inhibition in the classical pathway (human complement C3 [3]): 60 nM

B4: Clone VII (scFv)
scFv: MQLVLTQSPSASASLGASVKLTCTLSSAHKTYTIDWYQQQPEKGPRYLMQLKSEGSYTKGTGVPDRFSGSSSGAERYLTISSLQSEDSAVYYCGTEGVGGYVFGCGTKLTVLGGGGGSGGGGSGGGGSGGGGSQVQVVESGGGSVQPGRSLRLSCAVSGFSLYNYAMNWVRQAPGKCLEWIGIINVGGGTNYASWAKGRFTISTDNSKNTVYLQMNSLRAEDTASYYCARAVGYHHHALDPWGQGTSVTVSS
Kd (human complement C3 [6]): 1.1 nM

B5: Clone IX (scFv)
scFv: B4 scFv with E96D
Kd (human complement C3 [6]): 1.3 nM

B9: Clone IV (scFv)
scFv: QSVKESGGRLVTPGTPLTLTCTVSGFSLYNYAMNWVRQAPGKGLEWIGIINTDGNTNYASWAKGRFTISTTSSTTVDLKITSPTTEDTATYFCPRAVGYHHHALDPWGPGTLVTVSSGGGGSGGGGSGGGGSGGGGASELVLTQSPSVSAALGASAKLTCTLSSAHKTYTIDWYQQQQGEAPRYLMQLKSDGSYTKGTGVPDRFSGSSSGADRYLIIPSVQADDEADYYCGTDYGGGYVFGGGTQLTVTG
IC50, complement inhibition in the alternative pathway (human complement C3 [3]): 280 nM
IC50, complement inhibition in the classical pathway (human complement C3 [3]): 80 nM

B10: Clone II (scFv)
scFv: MQLVLTQSPSASASLGASVKLTCTLSSAHKTYTIDWYQQQPEKCPRYLMQLKSDGSYTKGSGIPDRFSGSSSGAERYLTISSLQSEDEADYYCGTEGVGGYVFGGGTKLTVLGGGGGSGGGGSGGGGSGGGGSQVQLVESGGGSVQPGRSLRLSCAASGFTFSNYAMNWVRQAPGKGLEWVAIINVGGGTNYADSVKGRFTISRDNSKNTLYLQMNSLRAEDTASYYCARAVGYHHARLDPWGCGTSVTVSS
notes: also called scFv of the invention
IC50 (nM), Alternative Pathway, Hemolysis (rabbit erythrocytes, human serum) (human complement C3 [7]): 668 nM
IC50 (nM), Alternative Pathway, MAC deposition (WEISLAB, human serum) (human complement C3 [7]): 360 nM
IC50 (nM), Classical Pathway, Hemolysis (antibody-sensitized sheep erythrocytes, human serum) (human complement C3 [7]): 69 nM
IC50 (nM), Classical Pathway, MAC deposition (WEISLAB, human serum) (human complement C3 [7]): 77 nM
IC50 (nM), Lectin Pathway, MAC deposition (WEISLAB, human serum) (human complement C3 [7]): 71 nM
Kd (human complement C3 [9]): 0.022 nM
Kd (human C3b [10]): 0.05 nM
Kd (human complement C3 [11]): 0.022 nM
koff (human complement C3 [11]): 5.5e-06 s⁻¹
kon (human complement C3 [11]): 250000 M⁻¹ s⁻¹
Kd (human C3b [12]): 0.05 nM
koff (human C3b [12]): 1.2e-05 s⁻¹
kon (human C3b [12]): 250000 M⁻¹ s⁻¹
Kd (cynomolgus C3): 0.07 nM
koff (cynomolgus C3): 1.5e-05 s⁻¹
kon (cynomolgus C3): 210000 M⁻¹ s⁻¹
Kd [13]: 0.035 nM
koff [13]: 1e-05 s⁻¹
kon [13]: 300000 M⁻¹ s⁻¹
Kd (human C3 P314L): < 0.04 nM
koff (human C3 P314L): < 1.1e-05 s⁻¹
kon (human C3 P314L): 290000 M⁻¹ s⁻¹
Kd (human C3 R102G): 0.021 nM
koff (human C3 R102G): 7e-06 s⁻¹
kon (human C3 R102G): 330000 M⁻¹ s⁻¹

B11: Clone III (scFv)
scFv: B10 scFv with D54E
notes: as for B10
IC50 (nM), Alternative Pathway, Hemolysis (rabbit erythrocytes, human serum) (human complement C3 [7]): 745 nM
IC50 (nM), Alternative Pathway, MAC deposition (WEISLAB, human serum) (human complement C3 [7]): 349 nM
IC50 (nM), Classical Pathway, Hemolysis (antibody-sensitized sheep erythrocytes, human serum) (human complement C3 [7]): 72 nM
IC50 (nM), Classical Pathway, MAC deposition (WEISLAB, human serum) (human complement C3 [7]): 73 nM
IC50 (nM), Lectin Pathway, MAC deposition (WEISLAB, human serum) (human complement C3 [7]): 64 nM
Kd (human complement C3 [9]): 0.151 nM
Kd (human C3b [10]): 0.127 nM
Kd (human complement C3 [11]): 0.151 nM
koff (human complement C3 [11]): 3.6e-05 s⁻¹
kon (human complement C3 [11]): 240000 M⁻¹ s⁻¹
Kd (human C3b [12]): 0.127 nM
koff (human C3b [12]): 3.1e-05 s⁻¹
kon (human C3b [12]): 250000 M⁻¹ s⁻¹
Kd (cynomolgus C3): 0.208 nM
koff (cynomolgus C3): 4.3e-05 s⁻¹
kon (cynomolgus C3): 200000 M⁻¹ s⁻¹
Kd [13]: 0.128 nM
koff [13]: 3.5e-05 s⁻¹
kon [13]: 270000 M⁻¹ s⁻¹
Kd (human C3 P314L): 0.127 nM
koff (human C3 P314L): 3.2e-05 s⁻¹
kon (human C3 P314L): 250000 M⁻¹ s⁻¹
Kd (human C3 R102G): 0.115 nM
koff (human C3 R102G): 3.2e-05 s⁻¹
kon (human C3 R102G): 280000 M⁻¹ s⁻¹

B12: Clone I (scFv)
scFv: MQLVLTQSPSASASLGASVKLTCTLSSAHKTYTIDWYQQQPEKCPRYLMQLKSDGSYTKGSGIPDRFSGSSSGAERYLTISSLQSEDEADYYCGTEGVGGYVFGGGTKLTVLGGGGGSGGGGSGGGGSGGGGSQVQLVESGGGSVQPGRSLRLSCAASGFTFSNYAMNWVRQAPGKGLEWVAVISYDGSNKYYADSVKGRFTISRDNSKNTLYLQMNSLRAEDTASYYCARAVGYHHARLDPWGCGTSVTVSS
notes: also called exemplary antibody of the invention (Clone I); scFv of the invention
IC50 (nM), Alternative Pathway, Hemolysis (rabbit erythrocytes, human serum) (human complement C3 [7]): 705 nM
IC50 (nM), Alternative Pathway, MAC deposition (WEISLAB, human serum) (human complement C3 [7]): 344 nM
IC50 (nM), Classical Pathway, Hemolysis (antibody-sensitized sheep erythrocytes, human serum) (human complement C3 [7]): 74 nM
IC50 (nM), Classical Pathway, MAC deposition (WEISLAB, human serum) (human complement C3 [7]): 79 nM
IC50 (nM), Lectin Pathway, MAC deposition (WEISLAB, human serum) (human complement C3 [7]): 67 nM
Kd (human complement C3 [14]): 0.16 nM
Kd (human C3b [15]): 0.14 nM
Kd (human complement C3 [9]): 0.152 nM
Kd (human C3b [10]): 0.149 nM
Kd (human complement C3 [11]): 0.152 nM
koff (human complement C3 [11]): 4.7e-05 s⁻¹
kon (human complement C3 [11]): 310000 M⁻¹ s⁻¹
Kd (human C3b [12]): 0.149 nM
koff (human C3b [12]): 4.8e-05 s⁻¹
kon (human C3b [12]): 320000 M⁻¹ s⁻¹
Kd (cynomolgus C3): 0.267 nM
koff (cynomolgus C3): 6.3e-05 s⁻¹
kon (cynomolgus C3): 240000 M⁻¹ s⁻¹
Kd [13]: 0.148 nM
koff [13]: 4.9e-05 s⁻¹
kon [13]: 330000 M⁻¹ s⁻¹
Kd (human C3 P314L): 0.14 nM
koff (human C3 P314L): 4.2e-05 s⁻¹
kon (human C3 P314L): 300000 M⁻¹ s⁻¹
Kd (human C3 R102G): 0.135 nM
koff (human C3 R102G): 4.5e-05 s⁻¹
kon (human C3 R102G): 330000 M⁻¹ s⁻¹
